# Assays:
# [1] = molecular target: T1, PAR1 binding to GST-PH-Etk/Bmx (Homo sapiens, UniProt P51813); assay: Peptide competition for binding of PAR1 cell lysates to GST-PH-Etk/Bmx; details: 1-1000 nM applied peptide; Western blot, FIG. 7B/7C
# T1 construct: made in house; host or cells: Escherichia coli (general statement on GST fusion proteins)
# T1 sequence (P51813 4-111 limits assumed): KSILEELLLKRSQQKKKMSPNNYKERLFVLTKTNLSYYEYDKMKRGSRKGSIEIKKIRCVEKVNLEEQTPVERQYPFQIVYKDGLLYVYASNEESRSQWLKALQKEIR
# Procedure: GST fusion protein columns. Fusion proteins were purified from transformed Escherichia coli bacteria that had been stimulated with isopropyl-β-D-thio-galactopyranoside (IPTG) at a concentration of […]. Bacteria were lysed according to published procedures, and then immobilized on glutathione Sepharose beads (Pharmacia). Briefly, MDA-MB-435 cell lysates were applied to GST-PAR1 C-tail or GST control columns. After 2 h binding periods to the designated protein/s cell lysates to the columns, a washing step was performed. The washes (×3) were carried out using a “wash buffer” including: 100 mM NaCL, 20 mM EDTA, 10 mM Tris, pH 8.0 and 1% Triton ×100. This step was performed in order to wash out all non-specific proteins, leaving the GST-PAR1-C-tail column firmly bound to targeted cell lysate proteins. Next, elution of bound proteins was performed via the addition of gel “sample buffer” and appropriate boiling. The samples were run electrophoretically on SDS-PAGE gels, followed by immunoblotting with the indicated antibodies and ECL detection.
# GST-PH-Etk/Bmx. The PH domain in Etk/Bmx was bound to GST column as previously described (Chen R, et al. (2001) Nat Cell Biol. 3: 439-444). Purification of PAR1 C-tail fragments. PAR1 C-tail fragments were generated using a “thrombin cleavage capture kit” (Novagen, Madison, Wis.; Cat no. 69022-3). The enzyme used for the cleavage was biotinylated human thrombin. Briefly, the cleavage was performed according to the manufacturer instructions. Biotinylated thrombin was removed from the cleavage reaction using streptavidin agarose beads, and the cleaved peptides (e.g., wt PAR1-C-tail and Y38 1A C-tail) were isolated and loaded on a GST-Etk-PH column. After incubation for 4 h the purified fragments were applied onto the GST-PH-Etk/Bmx column and detected following gel separation and western blotting analysis using anti-PAR1 antibodies (ATAP, Santa Cruz, Calif. ).
# Identification of PAR1-Etk/Bmx binding region: functional consequences. […]
# [2] = tested on: MDA-MB-435 cells; assay: Wound assay (cell migration) in MDA-MB-435 cell monolayer; assay type: cell-based, human; details: MDA-MB-435 monolayer, 24 h, PAR1 activation; compared to control untreated cells; FIG. 9D
# Procedure: In a parallel experiment, a wound assay for determining the rate of cell migration, showing the ability of the cells to fill in gaps in an MDA-MB-435 cell monolayer, was performed. MDA-MB-435 cell monolayer expressing endogenous Etk/Bmx was scratched to introduce an equal gap-area under the following conditions: control untreated cells, TFLLRNPNDK-activated or SiRNA-Etk/Bmx and TFLLRNPNDK-activated. […] Similar inhibition was obtained in the presence of the PAR1 antagonist, SCH 79797 (FIG. 9D, bottom panel), pointing to the important role of both PAR1 and Etk/Bmx in wound closure/migration of PAR1-activated MDA-MB-435 cells.
# [3] = molecular target: T2, association between Etk/Bmx and PAR1-C-tail (Homo sapiens, UniProt P51813); assay: Competition experiment: co-immunoprecipitation of HA-PAR1 and T7-tagged Etk/Bmx in MCF7 clones; assay type: cell-based; details: 20 minutes after activation by thrombin or TFLLRN, IP anti-HA, blot anti-T7, FIG. 22
# T2 construct: expressed in transfected cells
# T2 sequence (P51813 1-675): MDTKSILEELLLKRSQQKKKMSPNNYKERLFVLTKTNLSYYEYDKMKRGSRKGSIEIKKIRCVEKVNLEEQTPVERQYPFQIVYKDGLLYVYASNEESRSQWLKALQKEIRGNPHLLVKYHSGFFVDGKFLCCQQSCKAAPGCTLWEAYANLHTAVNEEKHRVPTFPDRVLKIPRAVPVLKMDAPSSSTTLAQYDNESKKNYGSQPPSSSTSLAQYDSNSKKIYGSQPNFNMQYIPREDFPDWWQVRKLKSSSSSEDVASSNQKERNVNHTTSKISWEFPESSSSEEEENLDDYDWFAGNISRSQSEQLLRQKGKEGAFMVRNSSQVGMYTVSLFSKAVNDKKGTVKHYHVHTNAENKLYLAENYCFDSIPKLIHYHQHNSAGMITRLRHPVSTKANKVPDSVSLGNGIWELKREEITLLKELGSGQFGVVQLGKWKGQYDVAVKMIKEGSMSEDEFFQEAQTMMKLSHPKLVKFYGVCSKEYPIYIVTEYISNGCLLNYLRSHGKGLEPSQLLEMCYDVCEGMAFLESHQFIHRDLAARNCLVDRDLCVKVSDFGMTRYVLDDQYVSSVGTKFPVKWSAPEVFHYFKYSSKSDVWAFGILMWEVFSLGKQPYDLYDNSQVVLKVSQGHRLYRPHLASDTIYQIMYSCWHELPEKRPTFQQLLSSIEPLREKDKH
# Procedure: Western blot and immunoprecipitation analysis: Cells were activated with agonist peptide TFLLRNPNDK (SEQ ID NO: 35) for the indicated periods of time and solubilized in lysis buffer containing 10 mM Tris-HCl, pH 7.4, 150 mM NaCl, 1 mM EDTA, 1% TritonX-100, and protease inhibitors ([…] aprotinin, 1 mM phenylmethylsulfonylfluoride, and […] leupeptin) at 4° C. for 30 min. The cell lysates were subjected to centrifugation at 12,000 rpm at 4° C. for 20 min. We used 400 μg of the supernatants with anti-PAR1 (ATAP, Santa Cruz, Calif. 1 μg), anti-HA (anti-HA sc-7392; Santa Cruz, Calif.), anti-Shc or Etk/Bmx antibodies (10 μg/ml). After overnight incubation, Protein A-Sepharose beads (Amersham Pharmacia Biotech, Buckinghamshire, UK) were added to the suspension (50 μl ), which was rotated at 4° C. for 1 h. The immunocomplexes were eluted and run electrophoretically on a 10% SDS-PAGE gel, followed by transfer to an Immobilon-P membrane (Millipore). Membranes were blocked and probed with 1 μg/ml amounts of the appropriate antibodies as follows: anti-PAR1 thrombin receptor mAb, (ATAP, from Santa Cruz, 1:1000); anti-Shc (BD, 1:2000); anti-Bmx (Transduction Laboratories, 1:1000) or anti-PY (Upstate 4G10, 1:2500), suspended in 3% BSA in 10 mM Tris-HCl, pH 7.5, 100 mM NaCl, and 0.5% Tween-20. […] Immunoreactive bands were detected by enhanced chemiluminescence (ECL). […]
compound,measurement,setting,value
"residues 393-412: peptide representing PAR1 C-tail residues 393-412 (DPSSYNSSGQLMASKMDTCS; UniProt P25116 393-412, looked up, fragment)",competition for the binding of PAR1 cell lysates to GST-PH-Etk/Bmx,[1],did not compete
"peptide 5: peptide representing PAR1 C-tail 387-400 (CCKESSDPSSYNSS; UniProt P25116 387-400, looked up, fragment)",competition for the binding of PAR1 cell lysates to GST-PH-Etk/Bmx,[1],did not compete
TFLLRNPNDK (listed as Homo sapiens),closure of the wound / migration,[2],Rapid closure of the wound
"peptide 4: 18-amino-acid peptide encompassing residues 375-392 of PAR1 C-tail (SSECQRYVYSILCCKESS; UniProt P25116 375-392, looked up, fragment)",competition for the binding of PAR1 cell lysates to GST-PH-Etk/Bmx,[1],dose-dependent inhibition
SSECQRYVYSIL (listed as Homo sapiens) [NH2-SSECQRYVYSIL-COOH],association between Etk/Bmx and PAR1-C-tail in the presence of the peptide,[3],No binding is observed
CC(C)c1ccc(Cn2ccc3c4c(N)nc(NC5CC5)nc4ccc32)cc1 [SCH79797],closure of the wound / migration,[2],attenuated wound closure

# Reference: patent US10611798B2, “PAR1 and PAR2 c-tail peptides and peptide mimetics” (Hadasit Medical Research Services and Development Ltd., priority 2010, dated 2020)
